Columns and labels:
β-(1,4)-GalNAcT = β-(1,4)-GalNAcT (Caenorhabditis elegans, UniProt Q9GUM2); details: as donor substrate compared with UDP-GalNAc; cited from earlier work
TnGalNAcT = assay: Transfer of 6-modified GalNAc-UDP derivatives to trimmed brentuximab by TnGalNAcT (mass spectrometric analysis); type: biochemical, Trichoplusia ni; details: sugar nucleotide 5 mM; TnGalNAcT 1.5 mg/mL; trimmed brentuximab 15 mg/mL; 30 °C overnight
Description: Bentuximab was trimmed analogues to the trimming of trastuzumab as described in example 6.
(§1) Trimmed bentuximab (15 mg/mL) was incubated with 6-amino-6-deoxy-GalNAc-UDP 94 (5 mM) and TnGalNAcT (1.5 mg/mL) in 10 mM MnCl2 and 25 mM Tris-HCl pH 8.0 at 30° C. overnight. A sample of the reaction mixture (2 μL) was incubated for 1 hour at 37° C. with Fabricator™ (1.25 U/μL) in phosphate-buffered saline (PBS) pH 6.6 in a total volume of 10 μL.
as §1, with “6-(2-azidoacetamido)-6-deoxy-GalNAc 93” for “6-amino-6-deoxy-GalNAc-UDP 94”

[1] = test system: core GlcNAc(Fuc) substituted trastuzumab; assay: Glycosyltransfer of 6-azido-GalNAc-UDP to trimmed trastuzumab under the action of GalNAcTs (mass spectral analysis); type: biochemical; details: 6-azido-GalNAc-UDP 1 mM; for Conversions (%) of GlcNAc(Fuc) substituted trastuzumab into 6-azido-GalNAc-GlcNAc(Fuc)-substituted trastuzumab: trimmed trastuzumab 10 mg/mL; for product formation, mass spectral analysis of Fabricator-digested samples: both enzyme concentrations (0.2 or 0.5 mg/mL)
Description: (§2) Prior to mass spectral analysis, IgGs were either treated with DTT, which allows analysis of both light and heavy chain, or treated with Fabricator™ (commercially available from Genovis, Lund, Sweden), which allows analysis of the Fc/2 fragment. For analysis of both light and heavy chain, a solution of 20 μg (modified) IgG was incubated for 5 minutes at 37° C. with 100 mM DTT in a total volume of 4 μL. If present, azide-functionalities are reduced to amines under these conditions. For analysis of the Fc/2 fragment, a solution of 20 μg (modified) IgG was incubated for 1 hour at 37° C. with Fabricator™ (1.25 U/μL) in phosphate-buffered saline (PBS) pH 6.6 in a total volume of 10 μL. After reduction or Fabricator-digestion the samples were washed trice with milliQ using an Amicon Ultra-0.5, Ultracel-10 Membrane (Millipore) resulting in a final sample volume of approximately 40 μL. Next, the samples were analyzed by electrospray ionization time-of-flight (ESI-TOF) on a JEOL AccuTOF. Deconvoluted spectra were obtained using Magtran software.
Glycan trimming of trastuzumab was performed with endo S from Streptococcus pyogenes (commercially available from Genovis, Lund, Sweden). Thus, trastuzumab (10 mg/mL) was incubated with endo S (40 U/mL) in 25 mM Tris pH 8.0 for approximately 16 hours at 37° C. The deglycosylated IgG was concentrated and washed with 10 mM MnCl2 and 25 mM Tris-HCl pH 8.0 using an Amicon Ultra-0.5, Ultracel-10 Membrane (Millipore). […] The two peaks of heavy chain belonged to one major product (49496 Da, 90% of total heavy chain), resulting from core GlcNAc(Fuc) substituted trastuzumab, and a minor product (49351 Da, ±10% of total heavy chain), resulting from trimmed trastuzumab.
Incorporation of 6-azidoGalNAc was tested for CeGalNAcT(30-383) (identified by SEQ ID NO: 6), AsGalNAcT(30-383) (identified by SEQ ID NO: 7), TnGalNAcT(33-421) (identified by SEQ ID NO: 8) and DmGalNAcT(47-403) (identified by SEQ ID NO: 9), which were expressed and purified as described in example 5. Trimmed trastuzumab (10 mg/mL), obtained by endo S treatment of trastuzumab as described above, was incubated with 6-azido-GalNAc-UDP (1 mM, commercially available from GlycoHub) in 10 mM MnCl2 and 25 mM Tris-HCl pH 7.5 and either 0.2 or 0.5 mg/mL of one of the above mentioned GalNAcTs.

[2] = cited from earlier work
[3] = test system: core GlcNAc(Fuc) substituted trastuzumab; assay: Glycosyltransfer of 6-azido-Gal-UDP to trimmed trastuzumab under the action of bovine β(1,4)-Gal-T1; type: biochemical; details: 0.1 or 0.5 mg/mL enzyme; 6-azido-Gal-UDP 1 mM; 30 °C overnight
Description: as §2
Glycan trimming of trastuzumab was performed with endo S from Streptococcus pyogenes (commercially available from Genovis, Lund, Sweden). Thus, trastuzumab (10 mg/mL) was incubated with endo S (40 U/mL) in 25 mM Tris pH 8.0 for approximately 16 hours at 37° C. […]

Sequence of β-(1,4)-GalNAcT (Q9GUM2 whole entry): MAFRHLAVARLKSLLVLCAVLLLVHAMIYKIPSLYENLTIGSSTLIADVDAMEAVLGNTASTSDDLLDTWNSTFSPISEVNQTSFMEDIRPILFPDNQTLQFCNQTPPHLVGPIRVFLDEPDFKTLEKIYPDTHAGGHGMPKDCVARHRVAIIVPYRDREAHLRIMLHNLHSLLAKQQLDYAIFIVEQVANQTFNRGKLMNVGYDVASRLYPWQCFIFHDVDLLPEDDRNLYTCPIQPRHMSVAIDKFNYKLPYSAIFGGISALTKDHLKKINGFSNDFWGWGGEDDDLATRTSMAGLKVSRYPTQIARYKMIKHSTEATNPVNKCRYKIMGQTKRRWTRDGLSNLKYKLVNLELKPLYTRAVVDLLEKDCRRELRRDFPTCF

For CC(=O)N[C@H]1[C@@H](OP(=O)(O)OP(=O)(O)OC[C@H]2O[C@@H](n3ccc(=O)[nH]c3=O)[C@H](O)[C@@H]2O)O[C@H](CO)[C@@H](O)[C@@H]1O [UDP-GlcNAc], the transferase activity remains (β-(1,4)-GalNAcT) is given as 0.7%.

In the case of CC(=O)NC1C(OP(=O)(O)OP(=O)(O)OCC2OC(n3ccc(=O)[nH]c3=O)C(O)C2O)OC(CNC(=O)CN=[N+]=[N-])C(O)C1O (stereo not drawn) [compound 93, 6-(2-azidoacetamido)-6-deoxy-GalNAc-UDP], the “conversion to the modified brentuximab product” value (TnGalNAcT) is reported as 70%.

In the case of CC(=O)NC1C(OP(=O)(O)OP(=O)(O)OCC2OC(n3ccc(=O)[nH]c3=O)C(O)C2O)OC(CN)C(O)C1O (stereo not drawn) [compound 94, 6-amino-6-deoxy-GalNAc-UDP], the “conversion to the modified brentuximab product” value (TnGalNAcT) is reported as “full conversion”.

In the case of “CeGalNAcT (30-383): truncated Caenorhabditis elegans β-(1,4)-GalNAcT enzyme, amino acids 30-383 of SEQ ID NO: 2”, the “Conversions (%) of GlcNAc(Fuc) substituted trastuzumab into 6-azido-GalNAc-GlcNAc(Fuc)-substituted trastuzumab” value (from here on “Conversions (%)”) ([1]; 0.2 mg/mL enzyme) is reported as 0%, the “Conversions (%)” value ([1]; 0.5 mg/mL enzyme) is reported as 0% and the “product formation, mass spectral analysis of Fabricator-digested samples” value [1] is reported as “no product formation”.

B1: β4GalT(Y289L,M344H): double mutant β-1,4-galactosyltransferase described by Ramakrishnan et al. (protein, UniProt P08037 1-402, looked up, variant Y289L M344H)
chain: MKFREPLLGGSAAMPGASLQRACRLLVAVCALHLGVTLVYYLAGRDLRRLPQLVGVHPPLQGSSHGAAAIGQPSGELRLRGVAPPPPLQNSSKPRSRAPSNLDAYSHPGPGPGPGSNLTSAPVPSTTTRSLTACPEESPLLVGPMLIEFNIPVDLKLVEQQNPKVKLGGRYTPMDCISPHKVAIIIPFRNRQEHLKYWLYYLHPILQRQQLDYGIYVINQAGESMFNRAKLLNVGFKEALKDYDYNCFVFSDVDLIPMNDHNTYRCFSQPRHISVAMDKFGFSLPYVQLFGGVSALSKQQFLSINGFPNNYWGWGGEDDDIYNRLAFRGMSVSRPNAVIGKCRHIRHSRDKKNEPNPQRFDRIAHTKETMLSDGLNSLTYMVLEVQRYPLYTKITVDIGTPS
For B1, the “activity in the presence of Mg2+” value ([2]; Mg2+) is listed as 25-30% and the “loss of Mn2+-dependent activity” value ([2]; Mn2+) is listed as 98%.

B2: bovine β(1,4)-Gal-T1: bovine β(1,4)-galactosyltransferase, commercially available from Sigma Aldrich (protein)
chain: MKFREPLLGGSAAMPGASLQRACRLLVAVCALHLGVTLVYYLAGRDLRRLPQLVGVHPPLQGSSHGAAAIGQPSGELRLRGVAPPPPLQNSSKPRSRAPSNLDAYSHPGPGPGPGSNLTSAPVPSTTTRSLTACPEESPLLVGPMLIEFNIPVDLKLIEQQNPKVKLGGRYTPMDCISPHKVAIIILFRNRQEHLKYWLYYLHPMVQRQQLDYGIYVINQAGESMFNRAKLLNVGFKEALKDYDYNCFVFSDVDLIPMNDHNTYRCFSQPRHISVAMDKFGFSLPYVQLFGGVSALSKQQFLSINGFPNNYWGWGGEDDDIYNRLAFRGMSVSRPNAVIGKCRMIRHSRDKKNEPNPQRFDRIAHTKETMLSDGLNSLTYMVLEVQRYPLYTKITVDIGTPS
modifications: Bos Taurus GalT Y289L mutant
notes: bovine β(1,4)-galactosyltransferase, commercially available from Sigma Aldrich
With B2 the “product formation, mass spectral analysis of reduced samples” value [3] was “no product formation”.

B3: AsGalNAcT (30-383): truncated Ascaris sum β-(1,4)-GalNAcT enzyme, amino acids 30-383 of SEQ ID NO: 3 (protein)
chain: DYSFWSPAFIISAPKTLTTLQPFSQSTSTNDLAVSALESVEFSMLDNSSILHASDNWTNDELVMRAQNENLQLCPMTPPALVGPIKVWMDAPSFAELERLYPFLEPGGHGMPTACRARHRVAIVVPYRDRESHLRTFLHNLHSLLTKQQLDYAIFVVEQTANETFNRAKLMNVGYAEAIRLYDWRCFIFHDVDLLPEDDRNLYSCPDEPRHMSVAVDKFNYKLPYGSIFGGISALTREQFEGINGFSNDYWGWGGEDDDLSTRVTLAGYKISRYPAEIARYKMIKHNSEKKNPVNRCRYKLMSATKSRWRNDGLSSLSYDLISLGRLPLYTHIKVDLLEKQSRRYLRTHGFPTC
modifications: AsGalNAcT (30-383)
With B3 the “Conversions (%)” value ([1]; 0.2 mg/mL enzyme) was 10%, the “Conversions (%)” value ([1]; 0.5 mg/mL enzyme) was 30% and the “product formation, mass spectral analysis of Fabricator-digested samples” value [1] was “partial conversion”.

B4: TnGalNAcT (33-421): truncated Trichoplusia ni β-(1,4)-GalNAcT enzyme, amino acids 33-421 of SEQ ID NO: 4 (protein)
chain: SPLRTYLYTPLYNATQPTLRNVERLAANWPKKIPSNYIEDSEEYSIKNISLSNHTTRASVVHPPSSITETASKLDKNMTIQDGAFAMISPTPLLITKLMDSIKSYVTTEDGVKKAEAVVTLPLCDSMPPDLGPITLNKTELELEWVEKKFPEVEWGGRYSPPNCTARHRVAIIVPYRDRQQHLAIFLNHMHPFLMKQQIEYGIFIVEQEGNKDFNRAKLMNVGFVESQKLVAEGWQCFVFHDIDLLPLDTRNLYSCPRQPRHMSASIDKLHFKLPYEDIFGGVSAMTLEQFTRVNGFSNKYWGWGGEDDDMSYRLKKINYHIARYKMSIARYAMLDHKKSTPNPKRYQLLSQTSKTFQKDGLSTLEYELVQVVQYHLYTHILVNIDERS
modifications: TnGalNAcT(33-421)
In the case of B4, the “Conversions (%)” value ([1]; 0.2 mg/mL enzyme) is reported as 40%, the “Conversions (%)” value ([1]; 0.5 mg/mL enzyme) is reported as 60% and the “product formation, mass spectral analysis of Fabricator-digested samples” value [1] is reported as “partial conversion”.

B5: DmGalNAcT (47-403): truncated Drosophila melanogaster β-(1,4)-GalNAcT enzyme, amino acids 47-403 of SEQ ID NO: 5 (protein)
chain: HKYAHIYGNASSDGAGGSEASRLPASPLALSKDRERDQELNGGPNSTIRTVIATANFTSIPQDLTRFLLGTKKFLPPRQKSTSALLANCTDPDPRDGGPITPNTTLESLDVIEAELGPLLRPGGAFEPENCNAQHHVAIVVPFRDRYAHLLLFLRNIHPFLMKQRIAYRIFIVEQTNGKPFNRAAMMNIGYLEALKLYQWDCFIFHDVDLLPLDDRNLYNCPRQPRHMSVAIDTLNFRLPYRSIFGGVSAMTREHFQAVNGFSNSFFGWGGEDDDMSNRLKHANLFISRYPVNIARYKMLKHQKEKANPKRYENLQNGMSKIEQDGINSIKYSIYSIKQFPTFTWYLAELKNSERKS
modifications: DmGalNAcT (47-403)
With B5 the “Conversions (%)” value ([1]; 0.2 mg/mL enzyme) was 0%, the “Conversions (%)” value ([1]; 0.5 mg/mL enzyme) was 0% and the “product formation, mass spectral analysis of Fabricator-digested samples” value [1] was “no product formation”.

From patent publication US12049656B2, “Process for the modification of a glycoprotein using a glycosyltransferase that is or is derived from a β(1,4)-n-acetylgalactosaminyltransferase” (Synaffix B.V., priority 2015, dated 2024)
